The values below come from US20090053230A1 (Genentech, published 2009).

Some results are limits rather than exact numbers.

In experiment [1] the target is T1, full-length human OX40L expressed on CHO cells (human, UniProt P23510 1-183).
T1 construct: whole, on cells; also called CHO-OX40L cells; OX40L-expressing CHO cells
T1 sequence (looked up): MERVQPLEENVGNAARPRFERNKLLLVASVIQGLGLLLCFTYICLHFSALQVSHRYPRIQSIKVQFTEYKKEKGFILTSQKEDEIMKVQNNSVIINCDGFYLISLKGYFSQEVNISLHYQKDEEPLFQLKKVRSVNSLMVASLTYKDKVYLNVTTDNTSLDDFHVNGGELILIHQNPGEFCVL
Nature of the experiment: Scatchard analysis, iodinated antibody on OX40L-expressing CHO cells. As to the method:
Scatchard binding experiments were performed to determine if anti-OX40L mAbs 8E12 and 13G5 compete with each other for binding similar or overlapping epitopes on CHO cells expressing human OX40L, and to determine the binding affinity of the antibodies. 50 ug of anti-OX40L murine monoclonal antibodies 8E12 and 13G5 were iodinated using a standard lactoperoxidase method. Antibodies 8E12 and 13G5 were serially diluted 1:4 in media buffer (Dubeccos F12:DMEM, 1% bovine serum albumin, 0.05% sodium azide and 25 mM Hepes buffer pH 7.2) starting at an initial concentration of 200 nM. Two sets of dilution series (50 uL) were performed in duplicate in a 96 microwell plate. Wells from each set of dilutions received 50 uL of either iodinated 8E12 or 13G5 (0.25 nM final concentration). The plate was mixed and then the entire mixture was transferred to a 96 well tissue culture plate containing 30,000 OX40L-expressing CHO cells per well which had been plated out the previous day. The plates were covered and incubated overnight at 4° C. The next day the wells (containing cells) were aspirated and washed twice with media buffer. 200 uL of 1N NaOH was added to each well to lyse the cells, shaken for 10 minute, and then transferred to a 96 well microtube. Each tube was counted in a Wallac gamma scintillation counter. […]

Experiment [2] addresses T2, mouse OX40L (mouse, UniProt P43488 51-198, limits assumed).
T2 construct: Construct coated on the plate is not described
T2 sequence (looked up): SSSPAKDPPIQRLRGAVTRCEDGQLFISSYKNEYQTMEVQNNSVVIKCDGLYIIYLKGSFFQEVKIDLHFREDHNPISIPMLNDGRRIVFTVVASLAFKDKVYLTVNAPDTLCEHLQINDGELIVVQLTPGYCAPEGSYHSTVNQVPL
Put plainly: ELISA, plates coated with mouse OX40L, goat anti-mouse Fc-HRP detection. As to the method:
(§1) To determine whether Mabs 8E12 and 13G5 bound mouse OX40L, ELISA plates were coated with mouse OX40L. Serial dilutions of 8E12 or 13G5 (0.004-4 ug/ml) were added. Goat anti-mouse Fc-HRP was used for detection. No binding was observed. In a different format, ELISA plates were coated with 8E12 or 13G5. Serial dilutions of mouse OX40L-Flag were added. Biotinylated anti-Flag followed by streptavidin-HRP was used for detection. No binding was observed.

The target in experiment [3] is T1, full-length human OX40L expressed on …. Put plainly: cell-based competition ELISA on CHO cells expressing full-length human OX40L; competitor human OX40-IgG-bio, streptavidin-HRP. As for the experimental part: (§2) In other experiments, CHO cells expressing full-length human OX40L were grown in 50:50 F12/DMEM medium supplemented with 2 mM L-glutamine, 100 units/ml penicillin, 100 ug/ml streptomycin (supplemented medium), and 5% FBS (Gibco BRL Life Technologies, Gaithersburg, Md.) (growth medium) in a humidified 5% CO₂ incubator at 37° C. Cells were detached from culture plates using Accutase (ICN) and added to 96 well microwell plates at 300,000 cells/well. A mixture of human OX40-IgG and serial dilutions of antibodies in growth medium was added to the plates. After a one-hour incubation on ice, cells were washed by centrifuging the plates and removing the supernatant. Bound human OX40-IgG was detected using anti-Fc-HRP. […] In some experiments, human OX40-IgG-bio was used instead of human OX40-IgG. Bound human OX40-IgG-bio was detected using streptavidin-HRP. Plates were developed and read as described above.

Experiment [4] has as its target T3, recombinant human OX40L-flag polypeptide (human OX40 ligand extracellular domain fused to the flag peptide) (human, UniProt P23510 51-183).
T3 construct: extracellular domain; Expressed from CHO cells (Genentech); also called human OX40L ECD-Flag polypeptide; human OX40L in solution; not shown: flag peptide
T3 sequence (looked up): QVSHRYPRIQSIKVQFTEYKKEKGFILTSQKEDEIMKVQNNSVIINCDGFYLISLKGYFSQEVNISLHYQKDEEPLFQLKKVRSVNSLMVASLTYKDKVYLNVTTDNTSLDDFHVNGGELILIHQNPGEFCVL
Nature of the experiment: competition ELISA, OX40L ECD-Flag captured by anti-Flag; competitor human OX40-IgG-bio; OX40L ECD-Flag captured on anti-Flag plate; OX40-IgG-bio as competitor. As for the experimental part:
Competition ELISA analysis was conducted as follows to examine binding of anti-OX40L Mabs 8E12 and 13G5 to OX40L in solution, and to examine binding to cell-surface expressed OX40L. In some experiments, maxiSorp 96-well microwell plates (Nunc, Roskilde, Denmark) were coated overnight at 4° C. with 2 ug/ml anti-FlagM2 antibody (Sigma) in 50 mM carbonate buffer, pH 9.6. Plates were washed with PBS containing 0.05% polysorbate 20 and blocked with 0.5% bovine serum albumin, 10 ppm Proclin 300 (Supelco, Bellefonte, Pa.) in PBS at room temperature for 1 h. Plates were washed and 0.5 ug/ml of human OX40L ECD-Flag polypeptide was added. After a one-hour incubation, plates were washed. A mixture of human OX40-IgG-bio and serial dilutions of antibodies in PBS containing 0.5% bovine serum albumin, 0.05% polysorbate 20, 10 ppm Proclin 300 was added. The plates were incubated for 2 h at room temperature and washed. Bound human OX40-IgG-bio was detected by adding streptavidin-HRP (Amdex, Copenhagen, Denmark) followed by 3,3′,5,5′-tetramethyl benzidine (Kirkegaard & Perry Laboratories, Gaithersburg, Md.) as the substrate. […] Absorbance was read at 450 nm on a Titertek stacker reader (ICN, Costa Mesa, Calif.). The titration curves were fit using a four parameter regression curve fitting program (KaleidaGraph, Synergy software, Reading, Pa.). […]
In general terms: An ELISA detects its analyte on a solid surface through an enzyme-linked reagent.

The target in experiment [5] is T3, recombinant human OX40L-flag …. Put plainly: competition ELISA, coated human OX40-IgG as competitor, Flag-tagged OX40L (printed 'OX40-Flag') in solution with antibody dilutions; plate coated with OX40-IgG; Flag-tagged ligand in solution with antibody.
Experiment [6] has as its target T1, full-length human OX40L expressed on …. Nature of the experiment: competitive radioligand binding on OX40L-expressing CHO cells; antibody titrated against iodinated OX40-Fc (0.25 nM final), overnight at 4 C, gamma counting, 4-parameter fit. As to the method: Competitive binding experiments were performed to determine if anti-OX40L mAbs 8E12 and 13G5 competed with iodinated OX40-Fc (extracellular domain of OX40 receptor fused to Fc domain) for binding to OX40L expressed on CHO cells. 50 ug of […] was iodinated using a standard lactoperoxidase method. Antibodies 8E12 and 13G5 were serially diluted 1:4 in media buffer (Dubeccos F12:DMEM, 1% bovine serum albumin, 0.05% sodium azide and 25 mM Hepes buffer pH 7.2) starting at an initial concentration of 200 nM. Dilutions (50 uL) were performed in duplicate in a 96 microwell plate. Each well received 50 uL of iodinated […] (0.25 nM final concentration), was mixed and then the entire mixture was transferred to a 96 well tissue culture plate containing 30,000 OX40L-expressing CHO cells per well, which had been plated out the previous day. The plates were covered and incubated overnight at 4° C. The next day the wells (containing cells) were aspirated and washed twice with media buffer. 200 uL of 1N NaOH was added to each well to lyse the cells, shaken for 10 minute, and then transferred to a 96 well microtube. Each tube was counted in a Wallac gamma scintillation counter. The data was collected and plotted using Kaleidagraph. Curves were drawn using a 4-parameter fit.

Experiment [7] addresses T3, recombinant human OX40L-flag …. Put plainly: SPR (BIAcore 3000), OX40L-Flag captured by immobilised anti-Flag, IgG as analyte. As to the method: Binding kinetics of mouse anti-OX40L antibodies to human OX40L were measured by surface plasmon resonance using Pharmacia BIAcore® 3000 (BIAcore AB, Uppsala, Sweden) at room temperature (Karlsson et al., 1994; Morton & Myszka, 1998). Anti-Flag antibody (anti-FlagM2, Sigma, St. Louis, Mo.) was immobilized to the sensor chip (CM5) through primary amine groups. A high flow rate was used in order to minimize mass transport effects. The carboxymethylated sensor chip surface matrix was activated by injecting 20 ul of a mixture of 0.025 M N-hydroxysuccinimide and 0.1 M N-ethyl-N′(dimethylaminopropyl) carbodiimide at 5 ul/min. 7 ul of 50 ug/ml anti-Flag in 10 mM sodium acetate, pH 4.5, were injected at 5 ul/min twice. After coupling, unoccupied sites on the chip were blocked by injecting 20 ul of 1M ethanolamine, pH 8.5. The running buffer was PBS containing 0.05% polysorbate 20. 5 ul of 4 ug/ml OX40L-Flag were injected at 30 ul/min to bind […] to the anti-Flag on the chip. For kinetic measurements, two-fold serial dilutions (6.2-50 nM) of mouse […] 8E12 (PUR 9333) and 13G5 (PUR 9306) in running buffer were injected over flow cell for 2 minutes at a flow rate of 30 ul/min and the bound anti-OX40L antibody was allow to dissociate for 20 minutes. […] Data were analyzed using a 1:1 binding model using global fitting. […]
(In general: In SPR one partner is held on a chip, and binding of the other changes the refractive index at the surface.)

The target of experiment [8] is T1, full-length human OX40L expressed on …. Nature of the experiment: cell-based competition ELISA on CHO cells expressing full-length human OX40L; competitor human OX40-IgG, anti-Fc-HRP. As to the method: as §2
In experiment [9] the target is T4, mouse OX40L-Flag (mouse, UniProt P43488 51-198, limits assumed).
T4 construct: not shown: Flag tag
T4 sequence (looked up): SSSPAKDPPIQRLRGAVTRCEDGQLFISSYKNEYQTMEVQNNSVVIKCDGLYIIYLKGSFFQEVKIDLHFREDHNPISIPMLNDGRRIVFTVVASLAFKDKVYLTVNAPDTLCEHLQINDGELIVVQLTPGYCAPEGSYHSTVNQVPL
Nature of the experiment: ELISA, plates coated with antibody, serial dilutions of mouse OX40L-Flag, biotinylated anti-Flag and streptavidin-HRP detection. As to the method: as §1

B1: mouse anti-human OX40L monoclonal antibody 8E12 (antibody, V domains shown)
VH: QVQLQQPGAELVRPGASVKLSCKASGYTFTSYWLNWVKQRPGQGLEWIVMIDPSDSETHYNQVFKDKATLTVDKSSSTAYMQLSSLTSEDSAVYYCIRGRGNFYGGSHAMEYWGQGTLLTVSS
VL: DILMTQTPLSLPVSLGDQASISCRSSQSIVHGNGNTYLEWHLQKPGQSPKLLIYRVSNRFSGVPDRFSGSGSGTDFTLKINRVEAEDLGVYYCFQGSHVPYTFGGGTKVEIKR
notes: Tested as mouse IgG purified from hybridoma medium by Protein A; also called Mab 8E12; anti-OX40L mab 8E12
As to B1, in [1], the dissociation constant Kd stood at 0.92 nM. Moreover, the binding result was “no binding (tested: 0.004-4 ug/ml)” in [2] and “no binding” in experiment [9]. Further, the EC50 in [3] is approximately 11 nM; in experiment [4], approximately 1.4 nM; in [5], approximately 1.9 nM; in [8], approximately 20 nM. In addition, the “IC50 (read off the curve)” value in experiment [6] fell in the range of 2.5 to 3 nM. Further, in experiment [7], the koff was less than 5e-06 s⁻¹.

A word on the Kd: it is the free concentration of one partner at which half of the binding sites on the other are occupied at equilibrium, for simple one-to-one binding. Read a low Kd as higher affinity. By EC50 is commonly meant the concentration at which the effect is half-maximal. In general, koff refers to the rate constant with which the complex falls apart.
